Laboratory results from patent EP3505186B1, “NUCLEOPHILIC CATALYSTS FOR OXIME LINKAGE” (Takeda Pharmaceutical Company Limited, priority 2010, dated 2012).

Assay: Specific activity of the interferon-gamma conjugate: biological activity by methods known in the art and total protein (Bradford)
Method: (§1) The free Interferon-gamma is removed by means of cation exchange chromatography (CEC). The reaction mixture is diluted with 20 ml Buffer A (50 mM Hepes, pH 6.5) and loaded onto a 20 ml HiPrep SPFF 16/10 column (GE Healthcare, Fairfield, CT) pre-equilibrated with Buffer A. Then the column is eluted with Buffer B (50 mM Hepes, 1 M NaCl, pH 6.5). Free interferon-gamma is eluted by washing the column with 25 % Buffer B and the conjugate at 50 % Buffer B. The conductivity of the conjugate containing fractions is subsequently raised to -190 mS/cm with Buffer C (50 mM Hepes, 5 M NaCl, pH 6.9) and loaded onto a 20 ml HiPrep Butyl FF 16/10 column (GE Healthcare, Fairfield, CT) pre-equilibrated with Buffer D (50 mM Hepes, 3 M NaCl, pH 6.9). Free PSA-reagent is washed out within 5 CV Buffer D. Subsequently, the conjugate is eluted with 100 % Buffer E (50 mM Hepes, pH 6.9). The conjugate containing fractions are concentrated by UF/DF using a 10 kD membrane made of regenerated cellulose (88 cm2, cut-off 10 kD, Millipore). The final diafiltration step is performed against histidine buffer, pH 6.9 containing 150 mM NaCl. The preparation is analytically characterized by measuring total protein (Bradford) and biological activity according to methods known in the art. For the PSA-Interferon-gamma conjugate a specific activity of > 50 % in comparison to native Interferon-gamma is determined. The conjugate is additionally analytically characterized by Size Exclusion HPLC using a Agilent 1200 HPLC system equipped with a Shodex KW 803 column under conditions as previously described (Kolarich et al, Transfusion 2006;46:1959-77). It is shown that the preparation contains no free Interferon gamma.
as §1, with “free interferon gamma” for “free Interferon-gamma”, “10 kD /” for “10 kD,”, “the PSAinterferon-gamma” for “the PSA-Interferon-gamma”, “native interferon-gamma” for “native Interferon-gamma”, “free interferon-gamma.” for “free Interferon gamma.”
The free interferon gamma is removed by means of cation exchange chromatography (CEC). […]

Row | Molecule | specific activity in comparison to native interferon-gamma (Reference Example 27 Method 1 (oxidation, then m-toluidine and 20 kD aminooxy-PSA, 5-fold)) | specific activity in comparison to native interferon-gamma (Reference Example 27 Method 2 (simultaneous, 20 kD aminooxy-PSA, 5-fold)) | specific activity in comparison to native interferon-gamma (Reference Example 27 Method 3 (simultaneous, 20 kD aminooxy-PSA, 5-fold)) | specific activity in comparison to native Interferon gamma (Reference Example 41 Method 1 (oxidation, then m-toluidine and 20 kD aminooxy-PEG, 5-fold)) | specific activity in comparison to native interferon-gamma (Reference Example 41 Method 3 (simultaneous, 20 kD aminooxy-PEG, 5-fold))
1 | PSA-Interferon-gamma conjugate: interferon-gamma polysialylated with 20 kD aminooxy-PSA reagent, m-toluidine as catalyst (conjugate, UniProt P01579 24-161, looked up, polysialic acid 20 kD, interferon-gamma polysialylated with 20 kD aminooxy-PSA reagent, m-toluidine as catalyst) Interferon gamma: QDPYVKEAENLKKYFNAGHSDVADNGTLFLGILKNWKEESDRKIMQSQIVSFYFKLFKNFKDDQSIQKSVETIKEDMNVKFFNSNKKKRDDFEKLTNYSVTDLNVQRKAIHELIQVMAELSPAAKTGKRKRSQMLFRG | > 50% | > 50% | > 50% | – | –
2 | PEG-interferon-gamma conjugate: interferon-gamma PEGylated with a linear 20 kD aminooxy PEGylation reagent, m-toluidine as catalyst (conjugate, UniProt P01579 24-161, looked up, PEG 20 kD, interferon-gamma PEGylated with a linear 20 kD aminooxy PEGylation reagent, m-toluidine as catalyst) Interferon gamma: QDPYVKEAENLKKYFNAGHSDVADNGTLFLGILKNWKEESDRKIMQSQIVSFYFKLFKNFKDDQSIQKSVETIKEDMNVKFFNSNKKKRDDFEKLTNYSVTDLNVQRKAIHELIQVMAELSPAAKTGKRKRSQMLFRG | – | – | – | > 50% | > 50%
